Target: AAV8 capsid (adeno-associated virus serotype 8) (adeno-associated virus 8, UniProt Q8JQF8)
Assay: cryo-EM structure

B1: AAVX nanobody (CaptureSelect Biotin Anti-AAVX Conjugate; ligand of the POROS CaptureSelect AAVX affinity resin) (VHH)
VHH: QVQIQESGGGIVQAGGSLRLSCAASGRTHGMYAMGWFRQAPGKEREFVAVQDITASNTHYSSAVKGRFTLSRDNAKNTAYLQMNNLKPEDTAVYYCAAGPTLMSGSYNSARDYDYWGQGTQVTVSS
stoichiometry N: 2 nanobodies per 5-fold
